The supplement of paper PMC11246515
± gives the standard deviation of the averaged measurements.

Assay: total protein half-life in vivo (active degradation + dilution); higher = more stable protein
[1] = E. coli NCM3722 delta-clpP delta-lon delta-hslV, growth: N-lim chemostat, doubling time 6 h
[2] = E. coli NCM3722 delta-clpP, growth: N-lim chemostat, doubling time 6 h
[3] = E. coli NCM3722 delta-hslV, growth: N-lim chemostat, doubling time 6 h
[4] = E. coli NCM3722 delta-lon, growth: N-lim chemostat, doubling time 6 h
[5] = E. coli NCM3722 delta-smpB, growth: N-lim chemostat, doubling time 6 h
[6] = wild type E. coli NCM3722, growth: C-lim chemostat, doubling time 3 h
[7] = wild type E. coli NCM3722, growth: C-lim chemostat, doubling time 6 h
[8] = wild type E. coli NCM3722, growth: C-lim chemostat, doubling time 12 h
[9] = wild type E. coli NCM3722, growth: N-lim chemostat, doubling time 6 h
[10] = wild type E. coli NCM3722, growth: N-lim chemostat, doubling time 12 h
[11] = wild type E. coli NCM3722, growth: P-lim chemostat, doubling time 6 h
[12] = wild type E. coli NCM3722, growth: P-lim chemostat, doubling time 12 h

Sequence | total protein half-life in vivo [1] | total protein half-life in vivo [2] | total protein half-life in vivo [3] | total protein half-life in vivo [4] | total protein half-life in vivo [5] | total protein half-life in vivo [6] | total protein half-life in vivo [7] | total protein half-life in vivo [8] | total protein half-life in vivo [9] | total protein half-life in vivo [10] | total protein half-life in vivo [11] | total protein half-life in vivo [12]
MKLLQRGVALALLTTFTLASETALAYEQDKTYKITVLHTNDHHGHFWRNEYGEYGLAAQKTLVDGIRKEVAAEGGSVLLLSGGDINTGVPESDLQDAEPDFRGMNLVGYDAMAIGNHEFDNPLTVLRQQEKWAKFPLLSANIYQKSTGERLFKPWALFKRQDLKIAVIGLTTDDTAKIGNPEYFTDIEFRKPADEAKLVIQELQQTEKPDIIIAATHMGHYDNGEHGSNAPGDVEMARALPAGSLAMIVGGHSQDPVCMAAENKKQVDYVPGTPCKPDQQNGIWIVQAHEWGKYVGRADFEFRNGEMKMVNYQLIPVNLKKKVTWEDGKSERVLYTPEIAENQQMISLLSPFQNKGKAQLEVKIGETNGRLEGDRDKVRFVQTNMGRLILAAQMDRTGADFAVMSGGGIRDSIEAGDISYKNVLKVQPFGNVVVYADMTGKEVIDYLTAVAQMKPDSGAYPQFANVSFVAKDGKLNDLKIKGEPVDPAKTYRMATLNFNATGGDGYPRLDNKPGYVNTGFIDAEVLKAYIQKSSPLDVSVYEPKGEVSWQ | 5.52 ± 0.41 h | 5.69 ± 0.46 h | 6.306 ± 0.01 h | 6.44 ± 0.24 h | 5.9 ± 0.07 h | 3.091 ± 0.03 h | 6.01 ± 0.52 h | 12.9 ± 0.35 h | 6.62 ± 0.42 h | 12.4 ± 1.3 h | 5.21 ± 0.21 h | 11.2 ± 0.18 h
MAKTLYEKLFDAHVVYEAENETPLLYIDRHLVHEVTSPQAFDGLRAHGRPVRQPGKTFATMDHNVSTQTKDINACGEMARIQMQELIKNCKEFGVELYDLNHPYQGIVHVMGPEQGVTLPGMTIVCGDSHTATHGAFGALAFGIGTSEVEHVLATQTLKQGRAKTMKIEVQGKAAPGITAKDIVLAIIGKTGSAGGTGHVVEFCGEAIRDLSMEGRMTLCNMAIEMGAKAGLVAPDETTFNYVKGRLHAPKGKDFDDAVAYWKTLQTDEGATFDTVVTLQAEEISPQVTWGTNPGQVISVNDNIPDPASFADPVERASAEKALAYMGLKPGIPLTEVAIDKVFIGSCTNSRIEDLRAAAEIAKGRKVAPGVQALVVPGSGPVKAQAEAEGLDKIFIEAGFEWRLPGCSMCLAMNNDRLNPGERCASTSNRNFEGRQGRGGRTHLVSPAMAAAAAVTGHFADIRNIK [P0A6A6] | 4.76 ± 0.36 h | 1.53 ± 0.022 h | 2.72 ± 0.34 h | 3.63 ± 0.16 h | 2.28 ± 0.034 h | 1.877 ± 0.017 h | 3.17 ± 0.04 h | 3.71 ± 0.57 h | 2.9 ± 0.39 h | 3.91 ± 0.068 h | 2.32 ± 0.4 h | 5.41 ± 0.32 h
MKLIRGIHNLSQAPQEGCVLTIGNFDGVHRGHRALLQGLQEEGRKRNLPVMVMLFEPQPLELFATDKAPARLTRLREKLRYLAECGVDYVLCVRFDRRFAALTAQNFISDLLVKHLRVKFLAVGDDFRFGAGREGDFLLLQKAGMEYGFDITSTQTFCEGGVRISSTAVRQALADDNLALAESLLGHPFAISGRVVHGDELGRTIGFPTANVPLRRQVSPVKGVYAVEVLGLGEKPLPGVANIGTRPTVAGIRQQLEVHLLDVAMDLYGRHIQVVLRKKIRNEQRFASLDELKAQIARDELTAREFFGLTKPA [P0AG40] | 4.18 ± 0.72 h | 5.21 ± 0.77 h | 4.54 ± 0.2 h | 5.2 ± 0.77 h | 4.43 ± 0.14 h | 3.15 ± 0.15 h | 5.64 ± 0.3 h | 10.5 ± 0.48 h | 4.62 ± 0.35 h | 7.426 ± 0.064 h | 5.441 ± 0.05 h | 11.83 ± 0.032 h
MPVAHVALPVPLPRTFDYLLPEGMTVKAGCRVRVPFGKQQERIGIVVSVSDASELPLNELKAVVEVLDSEPVFTHSVWRLLLWAADYYHHPIGDVLFHALPILLRQGRPAANAPMWYWFATEQGQAVDLNSLKRSPKQQQALAALRQGKIWRDQVATLEFNDAALQALRKKGLCDLASETPEFSDWRTNYAVSGERLRLNTEQATAVGAIHSAADTFSAWLLAGVTGSGKTEVYLSVLENVLAQGKQALVMVPEIGLTPQTIARFRERFNAPVEVLHSGLNDSERLSAWLKAKNGEAAIVIGTRSALFTPFKNLGVIVIDEEHDSSYKQQEGWRYHARDLAVYRAHSEQIPIILGSATPALETLCNVQQKKYRLLRLTRRAGNARPAIQHVLDLKGQKVQAGLAPALITRMRQHLQADNQVILFLNRRGFAPALLCHDCGWIAECPRCDHYYTLHQAQHHLRCHHCDSQRPVPRQCPSCGSTHLVPVGLGTEQLEQTLAPLFPGVPISRIDRDTTSRKGALEQQLAEVHRGGARILIGTQMLAKGHHFPDVTLVALLDVDGALFSADFRSAERFAQLYTQVAGRAGRAGKQGEVVLQTHHPEHPLLQTLLYKGYDAFAEQALAERRMMQLPPWTSHVIVRAEDHNNQHAPLFLQQLRNLILSSPLADEKLWVLGPVPALAPKRGGRWRWQILLQHPSRVRLQHIINGTLALINTIPDSRKVKWVLDVDPIEG | 5.492 ± 0.011 h | 6.24 ± 0.23 h | 5.9 ± 0.067 h | 5.89 ± 0.2 h | 5.23 ± 0.45 h | 2.86 ± 0.03 h | 5.85 ± 0.21 h | 9.53 ± 1.3 h | 5.35 ± 0.074 h | 12.2 ± 1 h | 6.13 ± 0.2 h | 
MLYVIYAQDKADSLEKRLSVRPAHLARLQLLHDEGRLLTAGPMPAVDSNDPGAAGFTGSTVIAEFESLEAAQAWADADPYVAAGVYEHVSVKPFKKVF [P0AB55] | 5.05 ± 0.14 h | 4.751 ± 0.018 h | 4.51 ± 0.13 h | 5.1 ± 0.41 h | 5.34 ± 1 h |  | 4.96 ± 0.49 h | 9.37 h |  | 7.02 ± 0.86 h | 6 h | 
MSKSLQKPTILNVETVARSRLFTVESVDLEFSNGVRRVYERMRPTNREAVMIVPIVDDHLILIREYAVGTESYELGFSKGLIDPGESVYEAANRELKEEVGFGANDLTFLKKLSMAPSYFSSKMNIVVAQDLYPESLEGDEPEPLPQVRWPLAHMMDLLEDPDFNEARNVSALFLVREWLKGQGRV | 4.86 ± 0.33 h | 4.8 ± 1.8 h | 3.56 ± 0.2 h | 4.58 ± 0.89 h | 3.4 ± 0.13 h | 3.39 ± 0.13 h | 5.24 ± 0.67 h | 9.26 ± 1.9 h | 3.9 ± 0.67 h | 5.391 ± 0.048 h | 5.95 ± 0.12 h | 11.5 ± 1 h
MDLASLRAQQIELASSVIREDRLDKDPPDLIAGADVGFEQGGEVTRAAMVLLKYPSLELVEYKVARIATTMPYIPGFLSFREYPALLAAWEMLSQKPDLVFVDGHGISHPRRLGVASHFGLLVDVPTIGVAKKRLCGKFEPLSSEPGALAPLMDKGEQLAWVWRSKARCNPLFIATGHRVSVDSALAWVQRCMKGYRLPEPTRWADAVASERPAFVRYTANQP |  | 5.52 ± 0.25 h | 4.58 ± 0.4 h | 4.952 ± 0.015 h | 4.62 ± 0.2 h | 3.05 ± 0.12 h | 6.09 ± 0.24 h | 11.3 ± 0.85 h | 5.08 ± 0.14 h | 8.84 ± 0.67 h | 5.3 ± 0.39 h | 9.801 ± 0.042 h
